Assays:
[1] = biological target: T1, BCMA_B3x Ile22_Ala54 (human, UniProt Q02223); experiment: yeast cell ELISA, sample BCMA_B3x Ile22_Ala54
T1 construct: limits given in the sample name
T1 yeast-displayed fusion (looked up): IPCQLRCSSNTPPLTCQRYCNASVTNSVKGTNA
Protocol: (§1) The YSD vector (pPNL6) was from The Pacific Northwest National Laboratory, USA. […] The HRP activity was assayed with substrate TMB (tetramethyl benzidine) according to the manufacture's conditions and read at OD₄₅₀.
(§2) The assays were performed as described in the Materials and Method, and OD₄₅₀ was measured. Note that OD₄₅₀ reads equal or less than 0.100 were scored as zero for clarity.

[2] = biological target: T2, BCMA_B14x Gly6_Pro23 (C21S) (human, UniProt Q02223); experiment: yeast cell ELISA, sample BCMA_B14x Gly6_Pro23 (C21S)
T2 construct: limits and substitution as printed in the sample name
T2 yeast-displayed fusion (looked up): GQCSQNEYFDSLLHASIP
Protocol: as §1, §2

[3] = biological target: T3, hBCMA-ECD-FC5VHH (human, UniProt Q02223 1-54, biotinylated in vivo ; biotinylated in vivo on the tag of the carrier part, which is not in the letters); experiment: SPR (Biacore T200), VHH 20-500 nM over BCMA-ECD surface, 25 C
T3 construct: Made in HEK-293 cells, monomeric SEC fraction; The methods say about 500 RU captured on an SA chip; the results say immobilised on a CM5 chip; also called hBCMA-FC5; human BCMA-ECD; not shown: FC5 VHH carrier, any linker, and the His and biotinylation tags
T3 sequence: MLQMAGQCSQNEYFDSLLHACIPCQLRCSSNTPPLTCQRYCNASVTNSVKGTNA
Protocol: For surface Plasmon resonance, 15 selected VHHs were passed though size exclusion columns, Superdex 75 (GE Healthcare), respectively, in 10 mM HEPES, pH 7.4, containing 150 mM NaCl, 3 mM EDTA, monomeric sdAb fractions were collected and protein concentrations were determined by measuring absorbance at 280 nm (A280). Analysis were performed with Biacore T200 instrument (GE Healthcare). All measurements were carried out at 25° C. in 10 mM HEPES, pH 7.4, containing 150 mM NaCl, 3 mM EDTA and 0.005% surfactant P20 (GE Healthcare). Approximately 500 RUs of the recombinant monomeric BCMA-ECD (obtained after SEC purification of the BCMA-ECD-FC5VHH) were captured on SA sensor chip (GE Healthcare) at a flow rate of 5 uL/min. Various concentration of the monomeric VHHs (20-500 nM) were injected over BCMA-ECD surface, respectively using an SA surface as a reference at a flow rate of 40 μL/min. Surfaces were generated by washing with running buffer. Data were analysed with BIAevaluation 4.1 software.
The monomeric fraction of all 15 VHHs were used for SPR experiment where the human BCMA-ECD or mouse BCMA was immobilized onto the CM5 dextran chip and various VHH concentration (20-500 nM) were passed over the sensor chip.

[4] = biological target: T4, BCMA_B15x Ile22_Ala43 (human, UniProt Q02223); experiment: yeast cell ELISA, sample BCMA_B15x Ile22_Ala43
T4 construct: limits given in the sample name
T4 yeast-displayed fusion (looked up): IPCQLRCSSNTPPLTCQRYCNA
Protocol: as §1, §2

[5] = biological target: T5, full-length hBCMA-ECD displayed on yeast (Aga2-HA-(hBCMA)-MYC) (human, UniProt Q02223 1-54); experiment: yeast cell ELISA, sample BCMA_B1x Met1_Ala54
T5 construct: range 1-54; stands here as the molecule on which the mapped regions are counted; also called hBCMA ecto-domain (ECD); not shown: Aga2-HA N-terminal fusion partner of the pPNL6 yeast display vector; C-terminal MYC tag
T5 sequence (looked up): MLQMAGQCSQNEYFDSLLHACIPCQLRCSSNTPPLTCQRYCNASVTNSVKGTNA
Protocol: as §1, §2

[6] = biological target: T6, BCMA_B21x Arg27_Tyr40 (human, UniProt Q02223); experiment: yeast cell ELISA, sample BCMA_B21x Arg27_Tyr40
T6 construct: limits given in the sample name
T6 yeast-displayed fusion (looked up): RCSSNTPPLTCQRY
Protocol: as §1, §2

[7] = biological target: T7, hBCMA fragment Gly6-Tyr40 displayed on yeast (Aga2-HA-(hBCMA)-MYC) (human, UniProt Q02223 6-40); experiment: yeast cell ELISA, sample BCMA_B11x Gly6_Tyr40
T7 construct: range 6-40; not shown: Aga2-HA N-terminal fusion partner of the pPNL6 yeast display vector; C-terminal MYC tag
T7 chain (looked up): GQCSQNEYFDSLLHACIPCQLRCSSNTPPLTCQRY
Protocol: as §1, §2

[8] = biological target: T8, BCMA_B2x Gly6_Ala54 (human, UniProt Q02223); experiment: yeast cell ELISA, sample BCMA_B2x Gly6_Ala54
T8 construct: limits given in the sample name
T8 yeast-displayed fusion (looked up): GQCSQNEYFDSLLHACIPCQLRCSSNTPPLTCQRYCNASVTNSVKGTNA
Protocol: as §1, §2

[9] = biological target: T9, BCMA_B19x Arg27_Ala43 (human, UniProt Q02223); experiment: yeast cell ELISA, sample BCMA_B19x Arg27_Ala43
T9 construct: limits given in the sample name
T9 yeast-displayed fusion (looked up): RCSSNTPPLTCQRYCNA
Protocol: as §1, §2

[10] = biological target: T10, BCMA_B8x Met1_Pro23 (human, UniProt Q02223); experiment: yeast cell ELISA, sample BCMA_B8x Met1_Pro23
T10 construct: limits given in the sample name
T10 yeast-displayed fusion (looked up): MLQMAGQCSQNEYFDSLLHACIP
Protocol: as §1, §2

[11] = biological target: T11, BCMA_B9x Met1_Asp15 (human, UniProt Q02223); experiment: yeast cell ELISA, sample BCMA_B9x Met1_Asp15
T11 construct: limits given in the sample name
T11 yeast-displayed fusion (looked up): MLQMAGQCSQNEYFD
Protocol: as §1, §2

[12] = biological target: T12, hBCMA fragment Gly6-Pro23 displayed on yeast (Aga2-HA-(hBCMA)-MYC) (human, UniProt Q02223 6-23); experiment: yeast cell ELISA, sample BCMA_B12x Gly6_Pro23
T12 construct: range 6-23; not shown: Aga2-HA N-terminal fusion partner of the pPNL6 yeast display vector; C-terminal MYC tag
T12 chain (looked up): GQCSQNEYFDSLLHACIP
Protocol: as §1, §2

[13] = biological target: T13, BCMA_B10x Gly6_Ala43 (human, UniProt Q02223); experiment: yeast cell ELISA, sample BCMA_B10x Gly6_Ala43
T13 construct: limits given in the sample name
T13 yeast-displayed fusion (looked up): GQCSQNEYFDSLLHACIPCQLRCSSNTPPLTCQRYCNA
Protocol: as §1, §2

[14] = biological target: T14, BCMA_B22x Arg27_Tyr40 (C37S) (human, UniProt Q02223); experiment: yeast cell ELISA, sample BCMA_B22x Arg27_Tyr40 (C37S)
T14 construct: limits and substitution as printed in the sample name
T14 yeast-displayed fusion (looked up): RCSSNTPPLTSQRY
Protocol: as §1, §2

B1: hBCMA-H2 (VHH)
VHH: QVKAEESGGGLVRPGDSLRLTCTISGRTSNNFVMAWFRRTPGKEREYVATRVWSGSTPYYHDSVKGRFTISIDDDKNTAYLQMNSLKPEDTAVYYCAATKDIMSRSYDYWGLGTQVTVSS
modifications: single biotin on the C-terminal AviTag
notes: also called VHH-H2; not shown: C-terminal His tag and AviTag biotinylation signal from pMRO vector
binding result [1]: no binding | binding result [2]: no binding | Kd [3]: 0.0801 nM | koff [3]: 0.000343 s⁻¹ | kon [3]: 4.28e+06 M⁻¹ s⁻¹ | binding result [4]: no binding | OD450 [5]: 2.12 | binding result [6]: no binding | OD450 [7]: 3.5 | OD450 [8]: 2.92 | binding result [9]: no binding | OD450 [10]: 2.89 | binding result [11]: no binding | OD450 [12]: 2.82 | OD450 [13]: 2.6 | binding result [14]: no binding

B2: hBCMA-A6 (VHH)
VHH: QVQLVESGGGLVQPGGSLRLSCVASGSIFDAYNMGWYRQAPGKQRELVAAISSAGTTFYRDSVKGRFTVSRNNAKNTMYLQMDRLRPEDTAVYDCNGAPWGDAPVKVEDWGQGTQVTVSS
modifications: single biotin on the C-terminal AviTag
notes: also called VHH-A6; not shown: C-terminal His tag and AviTag biotinylation signal from pMRO vector
binding result [1]: no binding | binding result [2]: no binding | Kd [3]: 4.62 nM | koff [3]: 0.0109 s⁻¹ | kon [3]: 2.36e+06 M⁻¹ s⁻¹ | binding result [4]: no binding | OD450 [5]: 1.88 | binding result [6]: no binding | OD450 [7]: 2.44 | OD450 [8]: 3.08 | binding result [9]: no binding | binding result [10]: no binding | binding result [11]: no binding | binding result [12]: no binding | OD450 [13]: 1.66 | binding result [14]: no binding

B3: hBCMA-VcMRo3 (V3) (VHH)
VHH: EVQLEQSGGGLVQTGDSLRLTCTIPGRASNHFVMAWFRRAPGKEREFVATRVWSGGSPYYSDSVKGRFAIAIDNAKNTAYLQMNSLKPEDTAVYYCAATKDIMSRSYDYWGLGTQVTVSS
modifications: single biotin on the C-terminal AviTag
notes: also called hBCMA-V3; not shown: C-terminal His tag and AviTag biotinylation signal from pMRO vector
binding result [1]: no binding | binding result [2]: no binding | Kd [3]: 0.564 nM | koff [3]: 0.000239 s⁻¹ | kon [3]: 424000 M⁻¹ s⁻¹ | binding result [4]: no binding | OD450 [5]: 3.09 | binding result [6]: no binding | OD450 [7]: 2.74 | OD450 [8]: 2.53 | binding result [9]: no binding | OD450 [10]: 2.09 | binding result [11]: no binding | OD450 [12]: 2.08 | OD450 [13]: 2.69 | binding result [14]: no binding

B4: hBCMA-E7 (VHH)
VHH: QVQLVESGGGLVQTGDSLRLACTISGRATDHFVMAWFRRAPGKEREYVATRVWSGGSPYYLDSVKGRFAIAIDNAKNTAYLQMNNLKPEDTAVYYCAATKDIMSRSYDYWGLGTQVTVSS
modifications: single biotin on the C-terminal AviTag
notes: Llama VHH made in E. coli BL21(DE3), IMAC purified, monomeric SEC fraction used; also called VHH-E7; VHH # 1-B1; not shown: C-terminal His tag and AviTag biotinylation signal from pMRO vector
binding result [1]: no binding | binding result [2]: no binding | Kd [3]: 0.0462 nM | koff [3]: 0.000179 s⁻¹ | kon [3]: 3.88e+06 M⁻¹ s⁻¹ | binding result [4]: no binding | OD450 [5]: 2.52 | binding result [6]: no binding | OD450 [7]: 3.57 | OD450 [8]: 2.92 | binding result [9]: no binding | OD450 [10]: 2.45 | binding result [11]: no binding | OD450 [12]: 2.39 | OD450 [13]: 1.8 | binding result [14]: no binding

B5: hBCMA-H4 (VHH)
VHH: QVQLVESGGGLVQPGGSLRLSCAASGDSFGAYAMGWYRQAPGKQRELVAAISSAGNTFYRDSVKGRFTVSRNNAKNAMYLQMDRLKPEDTAVYQCNGAPWADEPVKVWNWGLGTQVTVSS
modifications: single biotin on the C-terminal AviTag
notes: also called VHH-H4; not shown: C-terminal His tag and AviTag biotinylation signal from pMRO vector
binding result [1]: no binding | binding result [2]: no binding | Kd [3]: 0.379 nM | koff [3]: 0.000509 s⁻¹ | kon [3]: 1.34e+06 M⁻¹ s⁻¹ | binding result [4]: no binding | OD450 [5]: 2.78 | binding result [6]: no binding | OD450 [7]: 2.42 | OD450 [8]: 2.16 | binding result [9]: no binding | binding result [10]: no binding | binding result [11]: no binding | binding result [12]: no binding | OD450 [13]: 2.23 | binding result [14]: no binding

B6: hBCMA-VcMRo8(VF7/VF8) (VHH)
VHH: QVQLVESGGGLVQPGGSLRLSCAASGTIFSRNALAWFRQAPGKQRELVAHITIGGTTVYKDSVKGRFTISRDNAKNTVYLQMDALKPEDTAVYYCNADPEGSWNWVRRGDYWGQGTQVTVS
modifications: single biotin on the C-terminal AviTag
notes: also called V8; hBCMA-V8; not shown: C-terminal His tag and AviTag biotinylation signal from pMRO vector
binding result [1]: no binding | binding result [2]: no binding | Kd [3]: 0.0846 nM | koff [3]: 0.00125 s⁻¹ | kon [3]: 1.48e+07 M⁻¹ s⁻¹ | binding result [4]: no binding | OD450 [5]: 2.45 | binding result [6]: no binding | OD450 [7]: 2.61 | OD450 [8]: 2.74 | binding result [9]: no binding | binding result [10]: no binding | binding result [11]: no binding | binding result [12]: no binding | OD450 [13]: 2.32 | binding result [14]: no binding
